In PMC12499436, “Human Schlafen 14 Cleavage of Short Double‐Stranded RNAs Underpins its Antiviral Activity” (Advanced Science, 2025):
Substitutions are numbered along the chain they refer to. Names may count otherwise.

Tests used:
SLFN14mut = target: T1, SLFN14mut (Homo sapiens, UniProt P0C7P3 1-912, E211A;C365S;C775S;C808S); test: cryo-EM structure; 2.88 A; Zn2+ (2 per dimer); no active-site ion density; BLI: PBS, 0.02% P20, 0.1% BSA, 25 C; EMSA: 25 mM HEPES pH 7.5, 50 mM NaCl, 8% glycerol, 2 mM MgCl2, 1 mM DTT, 4 C, 50 nM ssDNA; cryo-EM: RNA in 40 mM Tris-HCl pH 8.0, 20 mM KCl, 4 mM MgCl2, 2 mM DTT, protein:RNA 1:1.2, 4 C overnight; conditions: protein: recombinant; tags: 6xHis-SUMO (N-term); chain copies: 2; hairpin, 12-bp stem, 7-nt loop
T1 sequence: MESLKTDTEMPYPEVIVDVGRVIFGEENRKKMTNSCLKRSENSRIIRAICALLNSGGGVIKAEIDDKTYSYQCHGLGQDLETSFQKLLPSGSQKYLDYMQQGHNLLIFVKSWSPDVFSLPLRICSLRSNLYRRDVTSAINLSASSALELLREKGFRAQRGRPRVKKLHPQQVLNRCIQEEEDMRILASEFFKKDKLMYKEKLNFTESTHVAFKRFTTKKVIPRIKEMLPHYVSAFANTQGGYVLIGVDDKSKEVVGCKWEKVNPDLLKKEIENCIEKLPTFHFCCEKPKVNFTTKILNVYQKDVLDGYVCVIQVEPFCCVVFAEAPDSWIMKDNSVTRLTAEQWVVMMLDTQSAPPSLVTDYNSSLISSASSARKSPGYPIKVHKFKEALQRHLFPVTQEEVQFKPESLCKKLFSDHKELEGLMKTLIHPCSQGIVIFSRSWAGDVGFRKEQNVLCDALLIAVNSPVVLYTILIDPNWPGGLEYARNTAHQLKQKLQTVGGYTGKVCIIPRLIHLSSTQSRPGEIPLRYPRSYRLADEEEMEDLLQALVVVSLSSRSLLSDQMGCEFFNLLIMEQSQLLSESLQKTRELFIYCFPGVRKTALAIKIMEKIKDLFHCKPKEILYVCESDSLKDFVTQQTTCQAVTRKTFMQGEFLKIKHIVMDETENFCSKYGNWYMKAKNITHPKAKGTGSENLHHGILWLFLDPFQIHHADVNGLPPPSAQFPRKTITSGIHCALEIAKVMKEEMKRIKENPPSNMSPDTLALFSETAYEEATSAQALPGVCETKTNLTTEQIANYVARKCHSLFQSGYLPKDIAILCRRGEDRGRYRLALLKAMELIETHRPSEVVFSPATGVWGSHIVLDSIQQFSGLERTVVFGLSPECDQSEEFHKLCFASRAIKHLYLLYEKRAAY

[1] = target: the molecule itself; test: SEC; recombinant strep-strep-SUMO tagged SLFN14 in solution with 150 mM NaCl; gel-filtration standards
[2] = target: the molecule itself; test: cryo-EM structure; apo SLFN14^mut, single-particle analysis, 2.84 Å
SLFN11 (WT) = target: T2, SLFN11 (WT) (Homo sapiens, UniProt Q7Z7L1 1-901); test: BLI; steady state; kdis 4.8e-4 /s; BLI: PBS, 0.02% P20, 0.1% BSA, 25 C; EMSA: 25 mM HEPES pH 7.5, 50 mM NaCl, 8% glycerol, 2 mM MgCl2, 1 mM DTT, 4 C, 50 nM ssDNA; cryo-EM: RNA in 40 mM Tris-HCl pH 8.0, 20 mM KCl, 4 mM MgCl2, 2 mM DTT, protein:RNA 1:1.2, 4 C overnight; conditions: protein: recombinant; tags: Strep-II-SUMO (N-term); chain copies: 2
T2 sequence: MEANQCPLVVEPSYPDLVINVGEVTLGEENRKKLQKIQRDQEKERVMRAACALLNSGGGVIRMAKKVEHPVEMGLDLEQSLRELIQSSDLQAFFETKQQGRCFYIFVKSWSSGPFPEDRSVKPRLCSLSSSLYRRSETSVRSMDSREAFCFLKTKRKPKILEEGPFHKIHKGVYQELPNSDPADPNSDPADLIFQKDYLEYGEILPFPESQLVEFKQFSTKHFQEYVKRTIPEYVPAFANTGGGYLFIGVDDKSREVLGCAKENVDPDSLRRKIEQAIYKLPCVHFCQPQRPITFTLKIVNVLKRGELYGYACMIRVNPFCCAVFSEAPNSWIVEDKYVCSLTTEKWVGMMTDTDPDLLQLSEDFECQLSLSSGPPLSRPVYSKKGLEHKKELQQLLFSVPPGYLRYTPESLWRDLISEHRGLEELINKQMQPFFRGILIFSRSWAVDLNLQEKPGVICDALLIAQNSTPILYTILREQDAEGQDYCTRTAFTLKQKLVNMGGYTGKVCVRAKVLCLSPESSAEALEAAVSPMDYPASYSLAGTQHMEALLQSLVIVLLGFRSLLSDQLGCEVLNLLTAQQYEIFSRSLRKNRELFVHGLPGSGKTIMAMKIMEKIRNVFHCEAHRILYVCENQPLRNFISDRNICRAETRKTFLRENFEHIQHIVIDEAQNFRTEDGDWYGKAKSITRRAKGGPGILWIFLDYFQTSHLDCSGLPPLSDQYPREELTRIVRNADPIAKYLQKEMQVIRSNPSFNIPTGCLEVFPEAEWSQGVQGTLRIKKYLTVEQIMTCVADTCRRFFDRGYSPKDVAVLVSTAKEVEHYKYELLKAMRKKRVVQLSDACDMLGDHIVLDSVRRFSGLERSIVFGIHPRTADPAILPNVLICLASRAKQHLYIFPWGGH

SLFN14 (WT) = target: T3, SLFN14 (WT) (Homo sapiens, UniProt P0C7P3 1-912); test: BLI; steady state; kdis 1.3e-3 /s; BLI: PBS, 0.02% P20, 0.1% BSA, 25 C; EMSA: 25 mM HEPES pH 7.5, 50 mM NaCl, 8% glycerol, 2 mM MgCl2, 1 mM DTT, 4 C, 50 nM ssDNA; cryo-EM: RNA in 40 mM Tris-HCl pH 8.0, 20 mM KCl, 4 mM MgCl2, 2 mM DTT, protein:RNA 1:1.2, 4 C overnight; conditions: protein: recombinant; tags: Strep-Strep-SUMO (N-term); chain copies: 2
T3 sequence: T1 sequence with A211E, S365C, S775C, S808C

B1: short hairpin RNA (hRNA) (structured_RNA)
RNA: GCAUCAGCUACCUAAAGUUCAGGUAGCUGAUG
Does B1 bind (SLFN14mut)?
Result: binds

B2: human SLFN14, wild type (strep-strep-SUMO tagged) (enzyme, UniProt P0C7P3 1-912, looked up)
chain: T1 sequence with A211E, S365C, S775C, S808C
notes: human Schlafen 14 (SLFN14), Gene ID 342618, wild type, codon-optimised gene; also called WT-SLFN14; Schlafen 14; source: HEK293F, transiently transfected, purified (Strep-Tactin, SEC); not shown: strep-strep, N-terminal, kept; SUMO, N-terminal, kept
B2 was tested. Which “stoichiometry N” value [1] did it give?
The value was 2.

B3: SLFN14 E211A-C365S-C775S-C808S (SLFN14^mut) (enzyme, human, UniProt P0C7P3 1-912, looked up)
chain: T1 sequence
notes: human Schlafen 14 (SLFN14), Gene ID 342618, full length, with four mutations introduced for cryo-EM; No tag cleavage is described in the purification; also called apo SLFN14; SLFN14 apoenzyme; source: Sf21 (baculovirus, pFastBac1), purified (Ni-NTA, heparin, SEC)
Does B3 bind [2]?
Result: binds

B4: 50-nt ssDNA (BLI) (ssDNA)
DNA: AATTGGTCGTAGCAAGCTCTAGCACCGCTTAAACGCACGTACGCGCTGTC
How did the Kd (SLFN11 (WT)) turn out when B4 was run?
The Kd was 37 nM.

And the Kd (SLFN14 (WT))?
Its Kd is 9 nM.
